Substrate in data set [1]: O=c1c(-c2ccc(O)cc2)coc2cc(O)ccc12
In words: HPLC glucosylation assay. Format: biochemical, Pueraria montana. Particulars: UDP-glucose co-substrate (5 mM in the activity assay), 50 mM Tris-HCl pH 8.0, 30°C.

Substrate in data set [2]: O=c1c(-c2ccc(O)cc2)coc2cc(O)cc(O)c12
In words: HPLC glucosylation assay. In kind it is biochemical, Pueraria montana. Particulars: UDP-glucose co-substrate (5 mM in the activity assay), 50 mM Tris-HCl pH 8.0, 30°C.

Data on two proteins can be found in paper PMC6362427, “Identification of Three (Iso)flavonoid Glucosyltransferases From Pueraria lobata” (Frontiers in Plant Science, 2019).

B1: PlUGT57 (Pueraria montana var. lobata) (protein)
chain: MGSEAPIHVLMVSYPAQGHINPLLRLGKCLAAKGLFVTFTTSETAGKDMRKANNITDKSVIPVGDGFLKFDFFEDGMADDDVSKKKSLSDVSAQLELVGKQYVSQMIKKHAESHHPISCIINNPFVPWVCDVAAEHAIPSAMLWIQSSAVFTAYYSYFYKLVSFPSDADPYVDVQLSSVVLKHNEVPDFLHPFSPYRFLGTLILEQFKNLSKPFCVLVDSFEELEHDYIDYLSKFLDIRPVGPLFKTPIATGTSDIRGDFMKSDDCIEWLNSRAPASVVYISFGSIVYLPQEQVTEIAHGLLNSHVSFLWVLKPPPKGYGVPPHVLPDGFFEGTRDKGKVVQWSPQEEVLAHPSVACFLTHCGWNSSMEALTLGMPMLTFPAWGDQVTNAKFLVDVFGVGIKLGYGHAAKKVVSREEVKKCLLEATVGPKAEELKQISFKWKKAAEAAVAANGSSARNLDAFMKDIKKRGAVGVNEI
notes: full-length ORF (464-477 residues range for the three), GST fusion in pGEX-2T (given as C-terminal fusion with GST tag), E. coli BL21, glutathione Sepharose purified
A word on the Km: it is the concentration of substrate that gives half-maximal velocity. A word on the kcat: it is the maximal rate divided by the concentration of active sites. In general, kcat/Km refers to the second-order rate constant that governs catalysis at low substrate concentration. As to B1, in “HPLC glucosylation assay [1]”, the Km was determined as 16.3 ± 1.87 µM, the kcat is 0.034 ± 0.0009 s⁻¹ and the catalytic efficiency (kcat/Km) was determined as 2100 M⁻¹ s⁻¹. In addition, in the data set “HPLC glucosylation assay [2]”, the Km stood at 7.68 ± 3.58 µM, the kcat is 0.11 ± 0.01 s⁻¹ and the catalytic efficiency (kcat/Km) is 13700 M⁻¹ s⁻¹.

B2: PlUGT4 (Pueraria montana var. lobata) (protein)
chain: MEKPHIAVVPSPGFTHLVPILEFSKRLLHLHPEFHITCFIPSVGSPPSSSKAYLQTLPPTITSIFLPPITLDDVPDPSILALQIELSVNLSLPYIKQELESLCSRAKVVALVVDVFANGALDFAKELNLLSYIYLPQSAMLLSLYFYSTKLDEILSSAFRDLTKPIEIPGCVPIHNKDLPIHFQNLSSIGYKGFLERSKRFHVPDGVFMNTFLELEPGAIRALQELVKGKPKVYPVGPIIQMGSVGHENRVECLTWLDKQQEPNSVLYVSFGSGGTLSQEQLNELAFGLELSGQKFLWVVRAPSSVATVGYFCAETKDPLEFLPHGFLERTKEQGLVVPSWAPQIQVLSHGATGGFLSHCGWNSVLESVVQGVPVITWPLFAEQSLNAAMLTDDLKVALRPKVNESGLAEREEIAKVVRGLMEGNEGMEIRKRMGLLKIAAANAIKEDGSSTKTLSEVATSSRGF
notes: as for B1
In the case of B2, in the data set “HPLC glucosylation assay [1]”, the Km stood at 110.8 ± 36.4 µM, the catalytic constant (kcat) was 0.0075 ± 0.0009 s⁻¹ and the kcat/Km is 67.1 M⁻¹ s⁻¹. In addition, in the data set “HPLC glucosylation assay [2]”, the Km was determined as 87.3 ± 38.9 µM, the kcat was found to be 0.014 ± 0.0021 s⁻¹ and the kcat/Km was 156 M⁻¹ s⁻¹.
